The target of the assay is T1, mCherry-α-catenin (UniProt P26231 1-906).
T1 construct: Monomeric pool from gel filtration; source: E. coli CK600K or BL21-DE3 Star, purified (Glutathione Sepharose, TEV protease cleavage, gel filtration; the monomeric pool was collected); not shown: GST (from the vector pGEX-2T); mCherry, N-terminal, kept
T1 sequence (looked up): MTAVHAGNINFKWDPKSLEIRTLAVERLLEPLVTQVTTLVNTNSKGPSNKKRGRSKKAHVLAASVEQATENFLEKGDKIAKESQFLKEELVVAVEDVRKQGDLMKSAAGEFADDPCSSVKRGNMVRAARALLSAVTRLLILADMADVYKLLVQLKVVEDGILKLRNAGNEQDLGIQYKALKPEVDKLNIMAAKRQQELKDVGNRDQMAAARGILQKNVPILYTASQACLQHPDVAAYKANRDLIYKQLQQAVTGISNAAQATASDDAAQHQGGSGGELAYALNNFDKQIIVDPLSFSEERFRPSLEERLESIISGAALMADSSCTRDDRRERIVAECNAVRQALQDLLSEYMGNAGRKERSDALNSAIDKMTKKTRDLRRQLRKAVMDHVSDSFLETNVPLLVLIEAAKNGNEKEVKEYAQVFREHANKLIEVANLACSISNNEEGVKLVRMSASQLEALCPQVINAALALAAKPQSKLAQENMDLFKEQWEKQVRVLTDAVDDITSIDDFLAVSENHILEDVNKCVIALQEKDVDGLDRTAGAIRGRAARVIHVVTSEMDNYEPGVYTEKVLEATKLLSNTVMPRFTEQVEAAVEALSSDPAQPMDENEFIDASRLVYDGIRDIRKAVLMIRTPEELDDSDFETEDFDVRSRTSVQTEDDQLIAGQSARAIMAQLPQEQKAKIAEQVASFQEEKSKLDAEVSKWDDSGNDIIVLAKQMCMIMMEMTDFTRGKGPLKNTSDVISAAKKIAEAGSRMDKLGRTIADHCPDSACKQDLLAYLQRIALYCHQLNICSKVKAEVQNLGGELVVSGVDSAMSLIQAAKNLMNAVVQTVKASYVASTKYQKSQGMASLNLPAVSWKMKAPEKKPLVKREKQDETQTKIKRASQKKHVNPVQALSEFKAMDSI
Put plainly: droplet co-partition assay (confocal microscopy); purified fluorescent proteins mixed at equimolar 1 μM with mEGFP-β-catenin (Wt or IDRs*) in droplet formation buffer (50 mM Tris-HCl pH 7.5, 125 mM NaCl, 10% glycerol, 1 mM DTT); droplets induced with 10% PEG-8000; fluorescence inside β-catenin droplets. The note with it: both partners purified.

B1: mEGFP-β-catenin^Wt (natural protein, UniProt P35222 1-781, looked up)
chain: MATQADLMELDMAMEPDRKAAVSHWQQQSYLDSGIHSGATTTAPSLSGKGNPEEEDVDTSQVLYEWEQGFSQSFTQEQVADIDGQYAMTRAQRVRAAMFPETLDEGMQIPSTQFDAAHPTNVQRLAEPSQMLKHAVVNLINYQDDAELATRAIPELTKLLNDEDQVVVNKAAVMVHQLSKKEASRHAIMRSPQMVSAIVRTMQNTNDVETARCTAGTLHNLSHHREGLLAIFKSGGIPALVKMLGSPVDSVLFYAITTLHNLLLHQEGAKMAVRLAGGLQKMVALLNKTNVKFLAITTDCLQILAYGNQESKLIILASGGPQALVNIMRTYTYEKLLWTTSRVLKVLSVCSSNKPAIVEAGGMQALGLHLTDPSQRLVQNCLWTLRNLSDAATKQEGMEGLLGTLVQLLGSDDINVVTCAAGILSNLTCNNYKNKMMVCQVGGIEALVRTVLRAGDREDITEPAICALRHLTSRHQEAEMAQNAVRLHYGLPVVVKLLHPPSHWPLIKATVGLIRNLALCPANHAPLREQGAIPRLVQLLVRAHQDTQRRTSMGGTQQQFVEGVRMEEIVEGCTGALHILARDVHNRIVIRGLNTIPLFVQLLYSPIENIQRVAAGVLCELAQDKEAAEAIEAEGATAPLTELLHSRNEGVATYAAAVLFRMSEDKPQDYKKRLSVELTSSLFRTEPMAWNETADLGLDIGAQGEPLGYRQDDPSYRSFHSGGYGQDALGMDPMMEHEMGGHHPGADYPVDGLPDLGHAQDLMDGLPPGDSNQLAWFDTDL
notes: also called mEGFP-β-cat^Wt; source: E. coli CK600K or BL21-DE3 Star, purified (Glutathione Sepharose, TEV protease cleavage, gel filtration); not shown: GST (from the vector pGEX-2T); mEGFP, N-terminal, kept
As to B1, the binding result is reported as “binds”.

The record behind these values is article PMC12783686, “β-catenin condensation facilitates clustering of the cadherin/catenin complex and formation of nascent cell-cell junctions” (Nature Communications, 2025).
